Source: patent publication US20210380703A1 (RIGEL PHARMACEUTICALS, published 2021)

What was measured:
[1] = target: T1, biotinylated goat anti-human kappa light chain; experiment: ELISA; positive control
T1 construct: Positive control of the ELISA
Summary of the method: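 ELISA measured binding of ACVR2A-specific monoclonal antibodies to human and mouse ACVR2A. Biotinylated goat anti-human kappa light chain served as positive control and human Fc as negative control.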

human ACVR2A = human ACVR2A (human, UniProt P27037 20-135, limits assumed); experiment: ELISA
Summary of the method: (§1)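 Binding signal was read by ELISA after ACVR2A-specific monoclonal antibodies were tested against human ACVR2A and mouse ACVR2A, with human Fc as the negative control.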

mouse ACVR2A = mouse ACVR2A (mouse, UniProt P27038 20-135, limits assumed); experiment: ELISA
Summary of the method: as §1
Note: test concentration or dose not given here.

Chain of human ACVR2A (P27037 20-135 limits assumed): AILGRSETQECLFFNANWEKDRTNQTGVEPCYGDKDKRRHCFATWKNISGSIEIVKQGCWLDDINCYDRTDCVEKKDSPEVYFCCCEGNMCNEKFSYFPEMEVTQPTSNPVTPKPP
Chain of mouse ACVR2A (P27038 20-135 limits assumed): as the sequence (P27037 20-135 limits assumed) above, with K20R, V73I counted along it

Binder | optical density [1] | optical density (human ACVR2A) | optical density (mouse ACVR2A)
365_B09 (antibody, V domains shown, VH/VL only) VH: EVQLLESGGGLVQPGGSLRLSCAASGFTFDSYSMNWVRQAPGKGLEWVAGINYNSGYKSYADSVKGRFTISRDNSKNTLYLQMNSLRAEDTAVYYCARSATWHDTHLDYWGQGTLVTVSS VL: DIQMTQSPSSLSASVGDRVTITCRASQSILRYLNWYQQKPGKAPKLLIYAATSLHSGVPSRFSGSGSGTDFTLTISSLQPEDFATYYCQQSYDNPLTFGGGTKVEIK | 3.28 OD | 3.26 OD | 3.32 OD
366_C01 (antibody, V domains shown, VH/VL only) VH: not shown VL: DIQMTQSPSSLSASVGDRVTITCRASQSIVTYLNWYQQKPGKAPKLLIYAATSPASGVPSRFSGSGSGTDFTLTISSLQPEDFATYYCQQSYELPLTFGGGTKVEIK | 3.6 OD | 2.31 OD | 2.41 OD
366_D07 (antibody, V domains shown, VH/VL only) VH: not shown VL: DIQMTQSPSSLSASVGDRVTITCRASQSILTYLNWYQQKPGKAPKLLIYAATSLASGVPSRFSGSGSGTDFTLTISSLQPEDFATYYCQQSYSSPLTFGGGTKVEIK | 3.38 OD | 2.41 OD | 2.62 OD
366_A03 (antibody, V domains shown, VH/VL only) VH: EVQLLESGGGLVQPGGSLRLSCAASGFTFDSYSMNWVRQAPGKGLEWVAGINYNSGYKGYADSVKGRFTISRDNSKNTLYLQMNSLRAEDTAVYYCARSATWHDTHLDYWGQGTLVTVSS VL: DIQMTQSPSSLSASVGDRVTITCRASQSISSYLNWYQQKPGKAPKLLIYAATSLASGVPSRFSGSGSGTDFTLTISSLQPEDFATYYCQQSYSNPLTFGGGTKVEIK | 3.31 OD | 1.15 OD | 1.12 OD
366_A09 (antibody, V domains shown, VH/VL only) VH: EVQLLESGGGLVQPGGSLRLSCAASGFTFSDYGMHWVRQAPGKGLEWVASINYNSGYTSYADSVKGRFTISRDNSKNTLYLQMNSLRAEDTAVYYCARSATWHDTHLDYWGQGTLVTVSS VL: DIQMTQSPSSLSASVGDRVTITCRASQSILTYLNWYQQKPGKAPKLLIYAATSRHSGVPSRFSGSGSGTDFTLTISSLQPEDFATYYCQQSYETPLTFGGGTKVEIK | 3.28 OD | 1.79 OD | 1.93 OD
365_C09 (antibody, V domains shown, VH/VL only) VH: EVQLLESGGGLVQPGGSLRLSCAASGFTFSDYGMNWVRQAPGKGLEWVSGINYNGGYKSYADSVKGRFTISRDNSKNTLYLQMNSLRAEDTAVYYCARSATWHDTHLDYWGQGTLVTVSS VL: DIQMTQSPSSLSASVGDRVTITCRASQSIVSYVNWYQQKPGKAPKLLIYAATSRASGVPSRFSGSGSGTDFTLTISSLQPEDFATYYCQQSYDTPLTFGGGTKVEIK | 3.27 OD | 2.05 OD | 2.18 OD
366_H05 (antibody, V domains shown, VH/VL only) VH: EVQLLESGGGLVQPGGSLRLSCAASGFTFDSYGMHWVRQAPGKGLEWVASINYNGGYTSYADSVKGRFTISRDNSKNTLYLQMNSLRAEDTAVYYCARSATWHDTHLDYWGQGTLVTVSS VL: DIQMTQSPSSLSASVGDRVTITCRASQSILSYVNWYQQKPGKAPKLLIYAATSLASGVPSRFSGSGSGTDFTLTISSLQPEDFATYYCQQSYDLPLTFGGGTKVEIK | 3.47 OD | 2.44 OD | 2.74 OD
365_G12 (antibody, V domains shown, VH/VL only) VH: EVQLLESGGGLVQPGGSLRLSCAASGFTFSSYGMNWVRQAPGKGLEWVAGINYNSGYTSYADSVKGRFTISRDNSKNTLYLQMNSLRAEDTAVYYCARSATWHDTALDYWGQGTLVTVSS VL: DIQMTQSPSSLSASVGDRVTITCRASQSILSYVNWYQQKPGKAPKLVIYAATSRASGVPSRFSGSGSGTDFTLTISSLQPEDFATYYCQQSYSNPLTFGGGTKVEIK | 3.55 OD | 2.74 OD | 2.75 OD
366_C02 (antibody, V domains shown, VH/VL only) VH: EVQLLESGGGLVQPGGSLRLSCAASGFTFSDYSMNWVRQAPGKGLEWVANINYNGGYTGYADSVKGRFTISRDNSKNTLYLQMNSLRAEDTAVYYCARSATWHDTHLDYWGQGTLVTVSS VL: DIQMTQSPSSLSASVGDRVTITCRASQSIVSYLNWYQQKPGKAPKLLIYAATSRASGVPSRFSGSGSGTDFTLTISSLQPEDFATYYCQQSYDNPLTFGGGTKVEIK | 3.43 OD | 3.03 OD | 3.04 OD
365_E02 (antibody, V domains shown, VH/VL only) VH: EVQLLESGGGLVQPGGSLRLSCAASGFTFSSYSMNWVRQAPGKGLEWVANINYNGGYTSYADSVKGRFTISRDNSKNTLYLQMNSLRAEDTAVYYCAKSATWHDTHLDYWGQGTLVTVSS VL: DIQMTQSPSSLSASVGDRVTITCRASQSIISYLNWYQQKPGKAPKLLIYAATSRASGVPSRFSGSGSGTDFTLTISSLQPEDFATYYCQQSYENPLTFGGGTKVEIK | 3.5 OD | 2.45 OD | 2.61 OD
365_C07 (antibody, V domains shown, VH/VL only) VH: EVQLLESGGGLVQPGGSLRLSCAASGFTFSDYGMNWVRQAPGKGLEWVASINYNGGYTSYADSVKGRFTISRDNSKNTLYLQMNSLRAEDTAVYYCARSATWHDTALDYWGQGTLVTVSS VL: DIQMTQSPSSLSASVGDRVTITCRASQSIVSYVNWYQQKPGKAPKLLIYAATSRASGVPSRFSGSGSGTDFTLTISSLQPEDFATYYCQQSYDTPLTFGGGTKVEIK | 3.17 OD | 1.94 OD | 1.92 OD
366_B04 (antibody, V domains shown, VH/VL only) VH: EVQLLESGGGLVQPGGSLRLSCAASGFTFDSYSMNWVRQAPGKGLEWVAGINYNGGYKGYADSVKGRFTISRDNSKNTLYLQMNSLRAEDTAVYYCARSATWHDTHLDYWGQGTLVTVSS VL: DIQMTQSPSSLSASVGDRVTITCRASQSILTYVNWYQQKPGKAPKLVIYAATSRHSGVPSRFSGSGSGTDFTLTISSLQPEDFATYYCQQSYDTPLTFGGGTKVEIK | 3.4 OD | 2.81 OD | 3.05 OD
365_D05 (antibody, V domains shown, VH/VL only) VH: EVQLLESGGGLVQPGGSLRLSCAASGFTFDSYSMNWVRQAPGKGLEWVAGINYNGGYTSYADSVKGRFTISRDNSKNTLYLQMNSLRAEDTAVYYCARSATWHDTHLDYWGQGTLVTVSS VL: DIQMTQSPSSLSASVGDRVTITCRASQSILTYVNWYQQKPGKAPKLLIYAATSRASGVPSRFSGSGSGTDFTLTISSLQPEDFATYYCQQSYNSPLTFGGGTKVEIK | 3.51 OD | 2.58 OD | 2.72 OD
366_D02 (antibody, V domains shown, VH/VL only) VH: EVQLLESGGGLVQPGGSLRLSCAASGFTFSSYSMNWVRQAPGKGLEWVASINYNGGYTSYADSVKGRFTISRDNSKNTLYLQMNSLRAEDTAVYYCARSATWHDTHLDYWGQGTLVTVSS VL: DIQMTQSPSSLSASVGDRVTITCRASQSILSYVNWYQQKPGKAPKLLIYATTSLASGVPSRFSGSGSGTDFTLTISSLQPEDFATYYCQQSYDLPLTFGGGTKVEIK | 3.57 OD | 2.27 OD | 2.55 OD
365_F08 (antibody, V domains shown, VH/VL only) VH: EVQLLESGGGLVQPGGSLRLSCAASGFTFDDYGMNWVRQAPGKGLEWVANINYNGGYTSYADSVKGRFTISRDNSKNTLYLQMNSLRAEDTAVYYCARSATWHDTHLDYWGQGTLVTVSS VL: DIQMTQSPSSLSASVGDRVTITCRASQSILSYVNWYQQKPGKAPKLLIYAATSRHSGVPSRFSGSGSGTDFTLTISSLQPEDFATYYCQQSYSLPLTFGGGTKVEIK | 3.63 OD | 2.25 OD | 2.61 OD
366_A05 (antibody, V domains shown, VH/VL only) VH: EVQLLESGGGLVQPGGSLRLSCAASGFTFSSYSMNWVRQAPGKGLEWVAGINYNSGYTGYADSVKGRFTISRDNSKNTLYLQMNSLRAEDTAVYYCARSATWHDTHLDYWGQGTLVTVSS VL: DIQMTQSPSSLSASVGDRVTITCRASQSILTYVNWYQQKPGKAPKLVIYAATSLASGVPSRFSGSGSGTDFTLTISSLQPEDFATYYCQQSYNTPLTFGGGTKVEIK | 3.48 OD | 2.62 OD | 2.6 OD
367_A01 (antibody, V domains shown, VH/VL only) VH: EVQLLESGGGLVQPGGSLRLSCAASGFTFSSYSMNWVRQAPGKGLEWVASINYNGGYTGYADSVKGRFTISRDNSKNTLYLQMNSLRAEDTAVYYCARSATWHDTHLDYWGQGTLVTVSS VL: DIQMTQSPSSLSASVGDRVTITCRASQSILTYLNWYQQKPGKAPKLLIYAATSRASGVPSRFSGSGSGTDFTLTISSLQPEDFATYYCQQSYDLPLTFGGGTKVEIK | 3.51 OD | 3.18 OD | 3.28 OD
365_F04 (antibody, V domains shown, VH/VL only) VH: EVQLLESGGGLVQPGGSLRLSCAASGFTFSSYGMNWVRQAPGKGLEWVAGINYNGGYTGYADSVKGRFTISRDNSKNTLYLQMNSLRAEDTAVYYCARSATWHDTHLDYWGQGTLVTVSS VL: DIQMTQSPSSLSASVGDRVTITCRASQSIVTYVNWYQQKPGKAPKLLIYAATSRASGVPSRFSGSGSGTDFTLTISSLQPEDFATYYCQQSYDTPLTFGGGTKVEIK | 3.47 OD | 2.26 OD | 2.51 OD
365_F07 (antibody, V domains shown, VH/VL only) VH: EVQLLESGGGLVQPGGSLRLSCAASGFTFSSYSMNWVRQAPGKGLEWVSNINYNGGYKSYADSVKGRFTISRDNSKNTLYLQMNSLRAEDTAVYYCARSATWHDTALDYWGQGTLVTVSS VL: DIQMTQSPSSLSASVGDRVTITCRASQSILSYVNWYQQKPGKAPKLVIYAATSRASGVPSRFSGSGSGTDFTLTISSLQPEDFATYYCQQSYDLPLTFGGGTKVEIK | 3.39 OD | 3.12 OD | 3.18 OD
